This experiment has as its target human pNBC1 (pancreas-type Na/HCO3 cotransporter 1) (human), Q9Y6R1. Kind of experiment: cell-based or functional assay.

Chain of human pNBC1 (pancreas-type Na/HCO3 cotransporter 1) (human), Q9Y6R1 (Q9Y6R1 whole entry): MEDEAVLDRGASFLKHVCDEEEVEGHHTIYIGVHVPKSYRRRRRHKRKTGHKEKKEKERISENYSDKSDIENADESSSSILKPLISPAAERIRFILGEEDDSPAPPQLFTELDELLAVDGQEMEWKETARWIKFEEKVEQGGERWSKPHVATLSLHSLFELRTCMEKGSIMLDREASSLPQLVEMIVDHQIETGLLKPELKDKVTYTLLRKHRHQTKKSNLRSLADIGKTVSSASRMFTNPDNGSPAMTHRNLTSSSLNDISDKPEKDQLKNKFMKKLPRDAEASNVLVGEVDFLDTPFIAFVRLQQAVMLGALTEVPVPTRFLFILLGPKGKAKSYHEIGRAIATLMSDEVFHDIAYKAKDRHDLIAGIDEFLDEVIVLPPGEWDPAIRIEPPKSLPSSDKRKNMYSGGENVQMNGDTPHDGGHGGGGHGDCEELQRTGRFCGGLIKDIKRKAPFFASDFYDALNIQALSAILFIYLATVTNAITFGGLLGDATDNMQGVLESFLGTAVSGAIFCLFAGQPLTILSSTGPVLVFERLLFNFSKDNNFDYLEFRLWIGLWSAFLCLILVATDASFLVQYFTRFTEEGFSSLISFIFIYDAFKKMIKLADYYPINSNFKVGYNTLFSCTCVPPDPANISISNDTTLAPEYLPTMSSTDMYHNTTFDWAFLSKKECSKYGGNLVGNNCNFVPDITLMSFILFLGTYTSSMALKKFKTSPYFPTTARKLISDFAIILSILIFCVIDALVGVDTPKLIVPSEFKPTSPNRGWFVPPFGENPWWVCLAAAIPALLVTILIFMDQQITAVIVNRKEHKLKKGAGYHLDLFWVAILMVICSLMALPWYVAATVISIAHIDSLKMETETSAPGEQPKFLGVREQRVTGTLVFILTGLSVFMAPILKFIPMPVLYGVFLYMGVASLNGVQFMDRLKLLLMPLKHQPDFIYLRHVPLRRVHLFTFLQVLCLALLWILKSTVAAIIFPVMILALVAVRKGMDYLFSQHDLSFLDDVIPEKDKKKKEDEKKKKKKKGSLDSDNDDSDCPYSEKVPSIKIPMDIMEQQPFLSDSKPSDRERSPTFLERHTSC

B1: mouse IRBIT (IP3 receptor-binding protein; IP3R-binding protein released with inositol 1,4,5-trisphosphate), Q80SW1 1-530 (protein)
chain: MSMPDAMPLPGVGEELKQAKEIEDAEKYSFMATVTKAPKKQIQFADDMQEFTKFPTKTGRRSLSRSISQSSTDSYSSAASYTDSSDDEVSPREKQQTNSKGSSNFCVKNIKQAEFGRREIEIAEQDMSALISLRKRAQGEKPLAGAKIVGCTHITAQTAVLIETLCALGAQCRWSACNIYSTQNEVAAALAEAGVAVFAWKGESEDDFWWCIDRCVNMDGWQANMILDDGGDLTHWVYKKYPNVFKKIRGIVEESVTGVHRLYQLSKAGKLCVPAMNVNDSVTKQKFDNLYCCRESILDGLKRTTDVMFGGKQVVVCGYGEVGKGCCAALKALGAIVYITEIDPICALQACMDGFRVVKLNEVIRQVDVVITCTGNKNVVTREHLDRMKNSCIVCNMGHSNTEIDVTSLRTPELTWERVRSQVDHVIWPDGKRVVLLAEGRLLNLSCSTVPTFVLSITATTQALALIELYNAPEGRYKQDVYLLPKKMDEYVASLHLPSFDAHLTELTDDQAKYLGLNKNGPFKPNYYRY
B1 came in with a current change at a membrane potential of -25 mV when ND96 solution was replaced by ND96+HCO3- solution (voltage clamp, Xenopus oocytes) of 6 to 7 times.

Values taken from US20100167314A1.
